The source of these data is US20090035307A1 (AbbVie / Abbott, published 2009).

Test [1] addresses T1, soluble amyloid precursor protein-alpha (sAPPα) (UniProt P05067-4 18-612, limits assumed).
T1 construct: Bought protein; also called sAPPα (Sigma)
In words: dot blot on nitrocellulose, densitometry. On the procedure:
(§1) For detection, the corresponding antibody was used (0.2 μg/mL). Immunostaining was done using peroxidase conjugated anti-mouse-IgG and the staining reagent BM Blue POD Substrate (Roche).
1) 1 μL each of the different Aβ-standards (in their 5 serial dilutions) were dotted onto the nitrocellulose membrane in a distance of approximately 1 cm from each other. [0267] 2) The Aβ-standards dots were allowed to dry on the nitrocellulose membrane on air for at least 10 min at room temperature (RT) (=dot blot). [0268] 3) Blocking: [0269] The dot blot was incubated with 30 mL 5% low fat milk in TBS for 1.5 h at RT. [0270] 4) Washing: [0271] The blocking solution was discarded and the dot blot incubated under shaking with 20 mL TTBS for 10 min at RT. [0272] 5) Antibody solution I: [0273] The washing buffer was discarded and the dot blot incubated with antibody solution I for 2 h at RT. [0274] 6) Washing: [0275] The antibody solution I was discarded and the dot blot incubated under shaking with 20 mL TTBS for 10 min at RT. The washing solution was discarded and the dot blot incubated under shaking with 20 mL TTBS for 10 min at RT. […] Quantitative evaluation was done using a densitometric analysis (GS800 densitometer (BioRad) and software package Quantity one, Version 4.5.0 (BioRad)) of the dot-intensity. […] This threshold value was determined for every dot-blot independently.

The target in test [2] is T2, Aβ(1-42) peptide in the CSF of an Alzheimer's disease patient (human).
T2 construct: Endogenous peptide immunoprecipitated from patient CSF; also called Aβ(1-42) peptide present in cerebrospinal fluid (CSF)
In words: immunoprecipitation from CSF with antibody-coated Dynabeads, urea-PAGE and Western blot. The protocol:
Activation of Dynabeads with monoclonal mouse antibodies [0497] the stock-suspension of dynabeads (Dynabeads M-280 Sheep anti-Mouse IgG, Invitrogen; Prod. No. 112.02) was shaken carefully to prevent foaming [0498] 1 mL was aseptically removed and transferred to a 1.5 mL reaction vial [0499] the dynabeads were washed 3 times 5 min with 1 mL immunoprecipitation (IP)-wash buffer (IP-wash-buffer: PBS (20 mM NaH₂PO₄, 140 mM NaCl, pH 7.4), 0.1% (w/v) BSA) During the washing procedure the supernatant was carefully removed while the dynabeads were immobilized at the side of the reaction vial with a magnetic separator stand (MSS) [0500] the washed dynabeads were incubated with 40 μg Aβ-antibody in 1 mL PBS, 0.1% (w/v) BSA [0501] the activation was carried out by overnight incubation under shaking at 4° C. [0502] the activated dynabeads were washed 4 times 30 min (again using the MSS) with 1 mL IP-wash buffer (PBS (20 mM NaH₂PO₄, 140 mM NaCl, pH 7.4), 0.1% (w/v) BSA) [0503] the activated dynabeads were resuspended with 1 mL PBS, 0.1% (w/v) BSA, 0.02% (w/v) Na-Azide; vortexed and centrifuged briefly [0504] the antibody activated dynabeads were stored at 4° C. until further use
250 μL aliquot of the prepared CSF sample were added to 25 μL anti-Aβ-Dynabeads suspension [0507] Immunoprecipitation occurred under stirring at 6° C. for 16 hours. […]
On the technique in general: A western blot detects proteins with antibodies after separation by electrophoresis.

The next test concerns the target T3, Aβ(12-42) globulomer (human).
T3 peptide: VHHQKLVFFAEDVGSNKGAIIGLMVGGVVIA
As to the kind of experiment: dot blot, antibody 0.2 µg/mL. On the procedure: as §1
(§2) 1) 1 μL each of the different Aβ-standards (in their 5 serial dilutions) were dotted onto the nitrocellulose membrane in a distance of approximately 1 cm from each other. [0267] 2) The Aβ-standards dots were allowed to dry on the nitrocellulose membrane on air for at least 10 min at room temperature (RT) (=dot blot). [0268] 3) Blocking: [0269] The dot blot was incubated with 30 mL 5% low fat milk in TBS for 1.5 h at RT. [0270] 4) Washing: [0271] The blocking solution was discarded and the dot blot incubated under shaking with 20 mL TTBS for 10 min at RT. [0272] 5) Antibody solution I: [0273] The washing buffer was discarded and the dot blot incubated with antibody solution I for 2 h at RT. [0274] 6) Washing: [0275] The antibody solution I was discarded and the dot blot incubated under shaking with 20 mL TTBS for 10 min at RT. The washing solution was discarded and the dot blot incubated under shaking with 20 mL TTBS for 10 min at RT. The washing solution was discarded and the dot blot incubated under shaking with 20 mL TBS for 10 min at RT. [0276] 7) Antibody solution II: [0277] The washing buffer was discarded and the dot blot incubated with antibody solution II overnight at RT. [0278] 8) Washing: [0279] The antibody solution II was discarded and the dot blot incubated under shaking with 20 mL TTBS for 10 min at RT. The washing solution was discarded and the dot blot incubated under shaking with 20 mL TTBS for 10 min at RT. The washing solution was discarded and the dot blot incubated under shaking with 20 mL TBS for 10 min at RT. [0280] 9) Development: [0281] The washing solution was discarded. The dot blot was developed with 10 mL BM Blue POD Substrate for 10 min. The development was stopped by intense washing of the dot blot with H₂O. Quantitative evaluation was done using a densitometric analysis (GS800 densitometer (BioRad) and software package Quantity one, Version 4.5.0 (BioRad)) of the dot-intensity. […] This threshold value was determined for every dot-blot independently.

For the next test, the target named is T4, Aβ(20-42) globulomer (human).
T4 peptide: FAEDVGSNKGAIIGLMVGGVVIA
As to the kind of experiment: dot blot, antibody 0.2 µg/mL. The protocol:
as §1, §2

The target in the next test is T5, Aβ(1-40) monomer (human).
T5 construct: Synthetic peptide (Bachem) freshly dissolved in 0.1% NH4OH or 0.1% NaOH; both preparations were dotted; also called Aβ(1-40) monomer, 0.1% NH4OH; Aβ(1-40) monomer, 0.1% NaOH
As to the kind of experiment: dot blot, antibody 0.2 µg/mL. On the procedure: as §1, §2

The next test concerns the target T6, Aβ(1-42) monomer (human).
T6 construct: Synthetic peptide (Bachem H-1368) freshly dissolved in 0.1% NH4OH or 0.1% NaOH; both preparations were dotted; also called Aβ(1-42) monomer, 0.1% NH4OH; Aβ(1-42) monomer, 0.1% NaOH
As to the kind of experiment: dot blot, antibody 0.2 µg/mL. The protocol: as §1, §2

A further test has as its target T7, Aβ(1-42) globulomer (human).
T7 construct: also called 38/48-kDa Aβ(1-42) globulomer; Aβ(1-42) globular oligomer
In words: dot blot, antibody 0.2 µg/mL. On the procedure: as §1, §2

T1 sequence (P05067 other isoform, or with tags, fused parts or gaps limits assumed): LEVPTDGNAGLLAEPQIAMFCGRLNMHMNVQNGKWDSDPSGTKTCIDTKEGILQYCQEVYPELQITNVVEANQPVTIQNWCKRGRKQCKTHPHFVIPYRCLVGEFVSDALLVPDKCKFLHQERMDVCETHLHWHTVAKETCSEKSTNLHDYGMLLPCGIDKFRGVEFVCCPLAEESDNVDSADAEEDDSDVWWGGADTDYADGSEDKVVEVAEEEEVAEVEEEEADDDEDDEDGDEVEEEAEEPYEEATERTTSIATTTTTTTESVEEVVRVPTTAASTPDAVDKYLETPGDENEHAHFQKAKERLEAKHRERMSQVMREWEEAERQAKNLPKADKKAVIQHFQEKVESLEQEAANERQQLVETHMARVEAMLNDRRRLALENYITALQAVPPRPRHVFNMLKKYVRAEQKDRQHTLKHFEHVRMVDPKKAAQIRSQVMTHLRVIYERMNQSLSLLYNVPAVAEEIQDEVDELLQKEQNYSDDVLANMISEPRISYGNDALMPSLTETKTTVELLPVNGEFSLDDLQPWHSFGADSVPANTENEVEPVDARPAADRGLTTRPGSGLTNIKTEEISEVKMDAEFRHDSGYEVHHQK
T5 sequence (peptide, as listed by the source): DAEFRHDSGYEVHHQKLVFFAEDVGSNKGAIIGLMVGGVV

B1: monoclonal antibody 10F4 (antibody, V domains shown)
VH: QVQLQQSGAELVRPGTSVRVSCKASGYAFTNYLIEWVKQRPGQGLEWIGVINPGSGDTNYNENFKGKATLTADKSSSTAYMHLSSLTSDDSAVYFCTRGVITTGFDYWGQGTTLTISS
VL: DIQMTQSPASLSASVGETVTITCRASGNIHNYLAWYQQKQGKSPQLLVYNAKTLADGVPSRFSGSGSGTQYSLKINSLQPEDFGSYYCQHFWSSPRTFGGGTKLEIKR
notes: Murine monoclonal antibody from a hybridoma (Balb/c mice immunized with Aβ(12-42) globulomer); also called mAb 10F4; ML43-10F4.3H8
For the molecule B1, the binding result was “no binding (tested: antibody 0.2 µg/mL; first dot: 1 pmol)” in test [1]; “binds” in test [2]; “binds” with Aβ(12-42) globulomer; “binds” in the test with Aβ(20-42) globulomer; “binds” in the test with Aβ(1-40) monomer; “binds” in the test with Aβ(1-42) monomer. Moreover, the binding result with Aβ(1-42) globulomer is “binds”.

B2: monoclonal antibody 3C5 (antibody, V domains shown)
VH: DVQLQESGPGLVKPSQSLSLTCTVAGSSITSHYAWNWIRQFPGNKLEWMGYIDYSGSTRYLPSLKSRISITRDTSKNQFFLQLNSVTTEDTATYYCARGSGYFYGMDYWGQGTSVTVSS
VL: DIQMNQSPSSLSPSLGDTITITCHASQNINVWLSWYQQKPGNIPKLLIYKASNLHTGVPSRFSGSGSGIGFTLTIRSLQPEDIATYFCQQGQSYPYTFGGGTKLEIKR
notes: Murine monoclonal antibody from a hybridoma (Balb/c mice immunized with Aβ(12-42) globulomer); also called mAb 3C5; ML45-3C5.5
In the case of B2, the binding result was “no binding (tested: antibody 0.2 µg/mL; first dot: 1 pmol)” in test [1]; “binds” in test [2]; “binds” in the test with Aβ(12-42) globulomer; “binds” with Aβ(20-42) globulomer; “binds” in the test with Aβ(1-40) monomer; “binds” in the test with Aβ(1-42) monomer. Further, the binding result with Aβ(1-42) globulomer was “binds”.
